# Reference: US20140087995A1 (published 2014)
# Numbered stars: 1 amine (or outer) side, 2 acyl side, 3 side chain; on linkers, the order of the positions; unused ones are H or OH. Bridge positions count the residues as written; N and C are the ends. Side chains are listed from the residue outwards. Ends that are not written are not given here. * marks the point of attachment. C20 diacid = O=C(O)CCCCCCCCCCCCCCCCCCC(=O)*; γGlu = O=C(O)[C@H](CCC(=O)[*:2])N[*:1]; AEEA = NCCOCCOCC(=O)O
# T1: human amylin receptor (human, UniProt P30988 25-474; O60896 24-148, limits assumed)
# T1 construct: whole, on cells; Calcitonin receptor plus RAMP-3 gives the amylin 3(a) receptor; membranes of Amylin 3(a)/CRE-luc cells were used; also called hAmylin-R; hAmylinR
# T1 sequence (looked up) 1: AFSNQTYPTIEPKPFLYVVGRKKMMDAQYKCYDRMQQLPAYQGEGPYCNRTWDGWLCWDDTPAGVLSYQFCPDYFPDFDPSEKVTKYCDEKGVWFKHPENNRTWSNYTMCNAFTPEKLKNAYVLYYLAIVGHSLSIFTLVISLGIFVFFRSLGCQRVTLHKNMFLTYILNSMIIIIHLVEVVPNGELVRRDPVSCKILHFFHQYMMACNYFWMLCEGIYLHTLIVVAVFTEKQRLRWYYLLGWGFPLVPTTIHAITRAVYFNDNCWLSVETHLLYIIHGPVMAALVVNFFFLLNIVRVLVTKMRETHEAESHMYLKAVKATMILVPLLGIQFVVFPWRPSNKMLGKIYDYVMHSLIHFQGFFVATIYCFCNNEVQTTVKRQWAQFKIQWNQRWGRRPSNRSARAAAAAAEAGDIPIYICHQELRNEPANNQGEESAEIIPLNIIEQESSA
# T1 sequence (looked up) 2: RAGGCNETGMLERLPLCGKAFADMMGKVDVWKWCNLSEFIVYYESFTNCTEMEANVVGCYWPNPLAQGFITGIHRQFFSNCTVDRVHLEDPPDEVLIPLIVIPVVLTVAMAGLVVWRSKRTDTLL
# B1: N^ε1-[2-[2-[2-[[(4S)-4-carboxy-4-(19-carboxynonadecanoylamino)butanoyl]amino]ethoxy]ethoxy]acetyl]-[Arg17,Pro21,Pro27]-h-amylin (peptide)
# peptide: K([AEEA-γGlu-C20 diacid])CNTATCATQRLANFLRHSSPNFGAIPSSTNVGSNTY-NH2
# modifications: disulfide 2-7; N-terminus assumed
# SMILES: CC[C@H](C)[C@H](NC(=O)[C@H](C)NC(=O)CNC(=O)[C@H](Cc1ccccc1)NC(=O)[C@H](CC(N)=O)NC(=O)[C@@H]1CCCN1C(=O)[C@H](CO)NC(=O)[C@H](CO)NC(=O)[C@H](Cc1c[nH]cn1)NC(=O)[C@H](CCCNC(=N)N)NC(=O)[C@H](CC(C)C)NC(=O)[C@H](Cc1ccccc1)NC(=O)[C@H](CC(N)=O)NC(=O)[C@H](C)NC(=O)[C@H](CC(C)C)NC(=O)[C@H](CCCNC(=N)N)NC(=O)[C@H](CCC(N)=O)NC(=O)[C@@H](NC(=O)[C@H](C)NC(=O)[C@@H]1CSSC[C@H](NC(=O)[C@@H](N)CCCCNC(=O)COCCOCCNC(=O)CC[C@H](NC(=O)CCCCCCCCCCCCCCCCCCC(=O)O)C(=O)O)C(=O)N[C@@H](CC(N)=O)C(=O)N[C@@H]([C@@H](C)O)C(=O)N[C@@H](C)C(=O)N[C@@H]([C@@H](C)O)C(=O)N1)[C@@H](C)O)C(=O)N1CCC[C@H]1C(=O)N[C@@H](CO)C(=O)N[C@@H](CO)C(=O)N[C@H](C(=O)N[C@@H](CC(N)=O)C(=O)N[C@H](C(=O)NCC(=O)N[C@@H](CO)C(=O)N[C@@H](CC(N)=O)C(=O)N[C@H](C(=O)N[C@@H](Cc1ccc(O)cc1)C(N)=O)[C@@H](C)O)C(C)C)[C@@H](C)O
# notes: also called 17R, 21P, 27P
# B2: N^ε1N^ε1-[(4S)-4-carboxy-4-(19-carboxynonadecanoylamino)butanoyl]-[His14,Arg17,Pro21,Pro27,Pro34]-h-amylin (peptide)
# peptide: K([γGlu-C20 diacid])CNTATCATQRLAHFLRHSSPNFGAIPSSTNVGPNTY-NH2
# modifications: disulfide 2-7; N-terminus assumed
# SMILES: CC[C@H](C)[C@H](NC(=O)[C@H](C)NC(=O)CNC(=O)[C@H](Cc1ccccc1)NC(=O)[C@H](CC(N)=O)NC(=O)[C@@H]1CCCN1C(=O)[C@H](CO)NC(=O)[C@H](CO)NC(=O)[C@H](Cc1c[nH]cn1)NC(=O)[C@H](CCCNC(=N)N)NC(=O)[C@H](CC(C)C)NC(=O)[C@H](Cc1ccccc1)NC(=O)[C@H](Cc1c[nH]cn1)NC(=O)[C@H](C)NC(=O)[C@H](CC(C)C)NC(=O)[C@H](CCCNC(=N)N)NC(=O)[C@H](CCC(N)=O)NC(=O)[C@@H](NC(=O)[C@H](C)NC(=O)[C@@H]1CSSC[C@H](NC(=O)[C@@H](N)CCCCNC(=O)CC[C@H](NC(=O)CCCCCCCCCCCCCCCCCCC(=O)O)C(=O)O)C(=O)N[C@@H](CC(N)=O)C(=O)N[C@@H]([C@@H](C)O)C(=O)N[C@@H](C)C(=O)N[C@@H]([C@@H](C)O)C(=O)N1)[C@@H](C)O)C(=O)N1CCC[C@H]1C(=O)N[C@@H](CO)C(=O)N[C@@H](CO)C(=O)N[C@H](C(=O)N[C@@H](CC(N)=O)C(=O)N[C@H](C(=O)NCC(=O)N1CCC[C@H]1C(=O)N[C@@H](CC(N)=O)C(=O)N[C@H](C(=O)N[C@@H](Cc1ccc(O)cc1)C(N)=O)[C@@H](C)O)C(C)C)[C@@H](C)O
# notes: also called 14H, 17R, 21P, 27P, 34P
# B3: N{Alpha-1}-[(4S)-4-carboxy-4-(19-carboxynonadecanoylamino)butanoyl]-[Glu14,Arg17,Pro21,Pro27,Lys34]-h-amylin (peptide)
# peptide: {C20 diacid-γGlu}-KCNTATCATQRLAEFLRHSSPNFGAIPSSTNVGKNTY-NH2
# modifications: disulfide 2-7
# SMILES: CC[C@H](C)[C@H](NC(=O)[C@H](C)NC(=O)CNC(=O)[C@H](Cc1ccccc1)NC(=O)[C@H](CC(N)=O)NC(=O)[C@@H]1CCCN1C(=O)[C@H](CO)NC(=O)[C@H](CO)NC(=O)[C@H](Cc1c[nH]cn1)NC(=O)[C@H](CCCNC(=N)N)NC(=O)[C@H](CC(C)C)NC(=O)[C@H](Cc1ccccc1)NC(=O)[C@H](CCC(=O)O)NC(=O)[C@H](C)NC(=O)[C@H](CC(C)C)NC(=O)[C@H](CCCNC(=N)N)NC(=O)[C@H](CCC(N)=O)NC(=O)[C@@H](NC(=O)[C@H](C)NC(=O)[C@@H]1CSSC[C@H](NC(=O)[C@H](CCCCN)NC(=O)CC[C@H](NC(=O)CCCCCCCCCCCCCCCCCCC(=O)O)C(=O)O)C(=O)N[C@@H](CC(N)=O)C(=O)N[C@@H]([C@@H](C)O)C(=O)N[C@@H](C)C(=O)N[C@@H]([C@@H](C)O)C(=O)N1)[C@@H](C)O)C(=O)N1CCC[C@H]1C(=O)N[C@@H](CO)C(=O)N[C@@H](CO)C(=O)N[C@H](C(=O)N[C@@H](CC(N)=O)C(=O)N[C@H](C(=O)NCC(=O)N[C@@H](CCCCN)C(=O)N[C@@H](CC(N)=O)C(=O)N[C@H](C(=O)N[C@@H](Cc1ccc(O)cc1)C(N)=O)[C@@H](C)O)C(C)C)[C@@H](C)O
# notes: also called 14E, 17R, 21P, 27P, 34K
# B4: N^ε1-[2-[2-[2-(19-carboxynonadecanoylamino)ethoxy]ethoxy]acetyl]-[Arg17,Pro21,Pro27]-h-amylin (peptide)
# peptide: K([AEEA-C20 diacid])CNTATCATQRLANFLRHSSPNFGAIPSSTNVGSNTY-NH2
# modifications: disulfide 2-7; N-terminus assumed
# SMILES: CC[C@H](C)[C@H](NC(=O)[C@H](C)NC(=O)CNC(=O)[C@H](Cc1ccccc1)NC(=O)[C@H](CC(N)=O)NC(=O)[C@@H]1CCCN1C(=O)[C@H](CO)NC(=O)[C@H](CO)NC(=O)[C@H](Cc1c[nH]cn1)NC(=O)[C@H](CCCNC(=N)N)NC(=O)[C@H](CC(C)C)NC(=O)[C@H](Cc1ccccc1)NC(=O)[C@H](CC(N)=O)NC(=O)[C@H](C)NC(=O)[C@H](CC(C)C)NC(=O)[C@H](CCCNC(=N)N)NC(=O)[C@H](CCC(N)=O)NC(=O)[C@@H](NC(=O)[C@H](C)NC(=O)[C@@H]1CSSC[C@H](NC(=O)[C@@H](N)CCCCNC(=O)COCCOCCNC(=O)CCCCCCCCCCCCCCCCCCC(=O)O)C(=O)N[C@@H](CC(N)=O)C(=O)N[C@@H]([C@@H](C)O)C(=O)N[C@@H](C)C(=O)N[C@@H]([C@@H](C)O)C(=O)N1)[C@@H](C)O)C(=O)N1CCC[C@H]1C(=O)N[C@@H](CO)C(=O)N[C@@H](CO)C(=O)N[C@H](C(=O)N[C@@H](CC(N)=O)C(=O)N[C@H](C(=O)NCC(=O)N[C@@H](CO)C(=O)N[C@@H](CC(N)=O)C(=O)N[C@H](C(=O)N[C@@H](Cc1ccc(O)cc1)C(N)=O)[C@@H](C)O)C(C)C)[C@@H](C)O
# notes: also called 17R, 21P, 27P
# B5: N^-1-[(4S)-4-carboxy-4-(19-carboxynonadecanoylamino)butanoyl]-Gly[Arg1,Arg17,Pro21,Pro27]-h-amylin (peptide)
# peptide: {C20 diacid-γGlu}-GRCNTATCATQRLANFLRHSSPNFGAIPSSTNVGSNTY-NH2
# modifications: disulfide 3-8
# SMILES: CC[C@H](C)[C@H](NC(=O)[C@H](C)NC(=O)CNC(=O)[C@H](Cc1ccccc1)NC(=O)[C@H](CC(N)=O)NC(=O)[C@@H]1CCCN1C(=O)[C@H](CO)NC(=O)[C@H](CO)NC(=O)[C@H](Cc1c[nH]cn1)NC(=O)[C@H](CCCNC(=N)N)NC(=O)[C@H](CC(C)C)NC(=O)[C@H](Cc1ccccc1)NC(=O)[C@H](CC(N)=O)NC(=O)[C@H](C)NC(=O)[C@H](CC(C)C)NC(=O)[C@H](CCCNC(=N)N)NC(=O)[C@H](CCC(N)=O)NC(=O)[C@@H](NC(=O)[C@H](C)NC(=O)[C@@H]1CSSC[C@H](NC(=O)[C@H](CCCNC(=N)N)NC(=O)CNC(=O)CC[C@H](NC(=O)CCCCCCCCCCCCCCCCCCC(=O)O)C(=O)O)C(=O)N[C@@H](CC(N)=O)C(=O)N[C@@H]([C@@H](C)O)C(=O)N[C@@H](C)C(=O)N[C@@H]([C@@H](C)O)C(=O)N1)[C@@H](C)O)C(=O)N1CCC[C@H]1C(=O)N[C@@H](CO)C(=O)N[C@@H](CO)C(=O)N[C@H](C(=O)N[C@@H](CC(N)=O)C(=O)N[C@H](C(=O)NCC(=O)N[C@@H](CO)C(=O)N[C@@H](CC(N)=O)C(=O)N[C@H](C(=O)N[C@@H](Cc1ccc(O)cc1)C(N)=O)[C@@H](C)O)C(C)C)[C@@H](C)O
# notes: also called -1G, 1R, 17R, 21P, 27P
# B6: N^-1-[(4S)-4-carboxy-4-(19-carboxynonadecanoylamino)butanoyl]-Gly[Arg1,Ala14,Arg17,Pro21,Pro27,His34]-h-amylin (peptide)
# peptide: {C20 diacid-γGlu}-GRCNTATCATQRLAAFLRHSSPNFGAIPSSTNVGHNTY-NH2
# modifications: disulfide 3-8
# SMILES: CC[C@H](C)[C@H](NC(=O)[C@H](C)NC(=O)CNC(=O)[C@H](Cc1ccccc1)NC(=O)[C@H](CC(N)=O)NC(=O)[C@@H]1CCCN1C(=O)[C@H](CO)NC(=O)[C@H](CO)NC(=O)[C@H](Cc1c[nH]cn1)NC(=O)[C@H](CCCNC(=N)N)NC(=O)[C@H](CC(C)C)NC(=O)[C@H](Cc1ccccc1)NC(=O)[C@H](C)NC(=O)[C@H](C)NC(=O)[C@H](CC(C)C)NC(=O)[C@H](CCCNC(=N)N)NC(=O)[C@H](CCC(N)=O)NC(=O)[C@@H](NC(=O)[C@H](C)NC(=O)[C@@H]1CSSC[C@H](NC(=O)[C@H](CCCNC(=N)N)NC(=O)CNC(=O)CC[C@H](NC(=O)CCCCCCCCCCCCCCCCCCC(=O)O)C(=O)O)C(=O)N[C@@H](CC(N)=O)C(=O)N[C@@H]([C@@H](C)O)C(=O)N[C@@H](C)C(=O)N[C@@H]([C@@H](C)O)C(=O)N1)[C@@H](C)O)C(=O)N1CCC[C@H]1C(=O)N[C@@H](CO)C(=O)N[C@@H](CO)C(=O)N[C@H](C(=O)N[C@@H](CC(N)=O)C(=O)N[C@H](C(=O)NCC(=O)N[C@@H](Cc1c[nH]cn1)C(=O)N[C@@H](CC(N)=O)C(=O)N[C@H](C(=O)N[C@@H](Cc1ccc(O)cc1)C(N)=O)[C@@H](C)O)C(C)C)[C@@H](C)O
# notes: also called -1G, 1R, 14A, 17R, 21P, 27P, 34H
# B7: N^-1-[(4S)-4-carboxy-4-(19-carboxynonadecanoylamino)butanoyl]-Gly[Arg1,Ala14,Arg17,Pro21,Pro27,Pro34]-h-amylin (peptide)
# peptide: {C20 diacid-γGlu}-GRCNTATCATQRLAAFLRHSSPNFGAIPSSTNVGPNTY-NH2
# modifications: disulfide 3-8
# notes: also called -1G, 1R, 14A, 17R, 21P, 27P, 34P
# Biological target: T1, human amylin receptor
# Assay: SPA competition binding, displacement of 125I-rat amylin from membranes with human amylin 3(a) receptor (Assay V)
# Outline: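 One-site competition analysis of SPA counts yielded IC₅₀ as a measure of affinity. Membranes were at 35 ng/μL final; incubation was 120 min at 25° C, pH 7.4.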
row,IC50,Binder
1,0.427 nM,B1
2,0.09 nM,B2
3,0.403 nM,B3
4,0.076 nM,B4
5,0.195 nM,B5
6,0.426 nM,B6
7,0.114 nM,B7
